From PMC7857403

Assays:
[1] = target: SARS-CoV-2 spike receptor binding domain (SARS-CoV-2) (UniProt P0DTC2); assay: BLI
[2] = target: SARS-CoV-2 spike receptor binding domain (SARS-CoV-2) (UniProt P0DTC2)

Substance	Kd [1] [nM]	other [2] [pM]
LCB3 (designed binder)	< 1	–
LCB1 (designed binder)	< 1	23.5
